Results as given in paper PMC12042621 (Structure (London, England : 1993), 2025).

B1: S1–8 (VHH)
VHH: QVQLVESGGGLVQAGGSLRLSCAASGRVLSSYVMGWFRQAPGKEREFVAAIRWNGGSTFYADSVKGRLTISRDNAKNTVYLQMNSLKPEDTAAYYCAASPRTMYDATYYYSRTSYDYWGQGTQVTVS
B2: LaG41 (VHH)
VHH: DVQLVESGGGLVQAGGSLRLSCAASGPTGAMAWFRQAPGKEREFVGGISGSETDTYYVDSVKGRFTVDRDNVKNTVYLQMNSLKPEDTAVYYCAARRRITLFTSRTDYDFWGRGTQVTVGL
B3: LaG21_(L69F) (VHH)
VHH: QVQLVESGGGLVQAGGSLRLSCAASGPTGAMAWFRQAPGMEREFVGGISGSETDTYYADFVKGRFTVDRDNVKNTVDLQMNSLKPEDTAVYYCAARRRVTLFTSRADYDFWGQGTQVTVSG
B4: LaG16 (VHH)
VHH: QVQLVESGGRLVQAGDSLRLSCAASGRTFSTSAMAWFRQAPGREREFVAAITWTVGNTILGDSVKGRFTISRDRAKNTVDLQMDNLEPEDTAVYYCSARSRGYVLSVLRSVDSYDYWGQGTQVTVSG
B5: LaG43 (VHH)
VHH: DVQLVESGGGLVQPGGSLRLSCEASGGAFSTVAMGWFRQAPGKEREFVGAITWTAGSTYYADSAKGRFTISRDNAKNTVHLQMNSLKPEDTAVYYCAQRVRGFFGPLRTTPSWYEYWGQGTQVTVSG
B6: LaG19_(S102R) (VHH)
VHH: QVQLVESGGGLVQAGGSLRLSCAASGPTGAMAWFRQAPGKEREFVGGISRSGTDTYYVDSVKGRFTIDRDNAKNTVYLQMNSLKPEDTAVYYCAARRRQILFTSRTDYEFWGQGTQVTVSG
B7: LaG21 (VHH)
VHH: QVQLVESGGGLVQAGGSLRLSCAASGPTGAMAWFRQAPGMEREFVGGISGSETDTYYADFVKGRLTVDRDNVKNTVDLQMNSLKPEDTAVYYCAARRRVTLFTSRADYDFWGQGTQVTVSG
B8: LaG24_(Q68K) (VHH)
VHH: DVQLVESGGGLVQPGGSLRLSCAASGEIASIIAIGWYRQAPGKQRESVALITRSGMITYGDSAKGRFTISRDDAKNTVYLHMDDLVPEDTAVYYCNAKKVSFGDYWGQGTQVTVSG
B9: LaG24_(H85Q) (VHH)
VHH: DVQLVESGGGLVQPGGSLRLSCAASGEIASIIAIGWYRQAPGKQRESVALITRSGMITYGDSAQGRFTISRDDAKNTVYLQMDDLVPEDTAVYYCNAKKVSFGDYWGQGTQVTVSG

Target: SARS-CoV-2 spike S1 (SARS-CoV-2, wild type (Wuhan-Hu-1), UniProt P0DTC2)
Assay: SPR

For B1, the Kd was 3.8 nM.

Target: Green Fluorescent Protein (Aequorea victoria, laboratory variant …)
Assay: SPR

B2 and B3 are within 1.5-fold of each other in Kd: 0.9 nM for the first, 0.7 nM for the second.

First: B4
Second: B5
The Kd of the first is 16-fold lower: 0.7 nM for the first, 11 nM for the second.

Compared with B6, B7 is 12-fold higher in Kd: 0.6 nM for the first, 7 nM for the second.

First: B8
Second: B9
The “fold increase in affinity over wildtype LaG24” value of the first is lower: about 10 fold for the first, over 10 fold for the second.
